Measured values as given in article PMC6335408.

Legend:
[1] = biological target: GST-Ubl45 (immobilised) (UniProt Q93009); test: SPR; GST-Ubl45 or GST-Ubl45ΔC captured by anti-GST antibody on CM5 chip, covalent CDUb flowed over; Biacore T200, 25 °C; same running buffer; equilibrium fit and EvilFit
[2] = biological target: USP7 C-terminal tail peptide (residues 1083-1102), biotinylated (UniProt Q93009); test: SPR; N-terminally biotinylated C-terminal tail peptide immobilised (~30 RU) on SA chip, CD or CDUb flowed over; Biacore T200, 25 °C; same running buffer
[3] = biological target: GST-Ubl45 (immobilised) (UniProt Q93009); test: SPR; around 50 units of Ubl45 immobilised, titration range of p53Ub-bound TCD flowed over; equilibrium fit
[4] = biological target: USP7 catalytic domain CD (Homo sapiens) (UniProt Q93009); test: activation assay; conditions: cited from earlier work
[5] = biological target: USP7 CD45 (catalytic domain linked to Ubl45); test: SEC-MALS; Superdex 200 in 20 mM HEPES pH 7.5, 100 mM NaCl, 1 mM DTT, in-line MALLS; CD45 100 µL of 45 µM, FL 80 µL of 20 µM loaded
[6] = biological target: USP7 CD12345^ΔC (UniProt Q93009)
[7] = biological target: USP7 catalytic domain (CD)
[8] = biological target: TAMRA-labelled p53 peptide (UniProt P04637); test: fluorescence polarisation; 25 nM TAMRA-p53 peptide with a dilution series of USP7 constructs; plate reader; 20 mM HEPES pH 7.5, 100 mM NaCl, 1 mM DTT, 1 mM EDTA, 0.05% Tween-20
[9] = biological target: USP7-TCD (TRAF domain and catalytic domain, lacks all Ubl domains); test: covalent suicide-probe reaction (preparative); 120 µM CD (or TCD) incubated overnight with an excess of probe and Ubl45 (both 150 µM) under dialysis against 20 mM HEPES pH 7.5, 50 mM NaCl, 2 mM DTT
[10] = biological target: full-length (FL) USP7 (UniProt Q93009)
[11] = biological target: USP7 CD12345 (catalytic domain with Ubl domains 1-5 and tail, no TRAF domain) (UniProt Q93009)
[12] = biological target: USP7-TCD (TRAF domain and catalytic domain, lacks all Ubl domains)
[13] = biological target: USP7 catalytic domain (CD); test: covalent suicide-probe reaction (preparative); 120 µM CD (or TCD) incubated overnight with an excess of probe and Ubl45 (both 150 µM) under dialysis against 20 mM HEPES pH 7.5, 50 mM NaCl, 2 mM DTT

“CDUb (USP7 catalytic domain covalently coupled to ubiquitin through Ub-PA) (from UniProt P0CG48 1-76) (complex)” showed a Kd [1] of 0.59 µM, a koff [1] of 0.8 s⁻¹ and a Kd [2] of 2.6 µM.

In the case of “TCD-p53Ub (USP7-TCD covalently bound to the p53UbVA probe) (from UniProt P04637 357-389; P0CG48 1-76) (complex)”, the Kd [3] is reported as 2.9 µM.

For “USP7 C-terminal peptide C-terminal tail (from UniProt Q93009)”, the Kd [4] is given as 1000 µM.

“USP7 CD45 (catalytic domain linked to Ubl45) (domain or fragment)” gave a stoichiometry N [5] of 2.

In the case of “USP7 CD12345^C223A (from UniProt Q93009 1-1102) (domain or fragment)”, the apparent KD (K (D,app)) from activation of CD12345^ΔC (20 nM) DUB activity on UbRho, titration of CD12345^C223A [6] is reported as 60 µM.

With “USP7 Ubl45 (last two Ubl domains with the activating C-terminal tail) (from UniProt Q93009 890-1102) (domain or fragment)” the apparent KD from in trans activation of CD (20 nM) DUB activity on UbRho, titration of Ubl45 [7] was 110 µM.

“full-length (FL) USP7 (from UniProt Q93009 1-1102) (enzyme)” showed a Kd [8] of 0.16 µM.

“p53UbVA (covalently binding, vinylamide-linked ubiquitinated p53 peptide, res. 357-389) (from UniProt P04637 357-389; P0CG48 1-76)” gave a percent reacted with the probe [9] of 100%.

With “p53Ubinh (non-hydrolysable, triazole-linked ubiquitinated p53 peptide) (from UniProt P04637 357-389; P0CG48 1-76)” the IC50 of inhibition of UbRho hydrolysis by p53Ubinh (FL 0.35 nM, UbRho 0.4 µM) [10] was 0.016 µM, the IC50 of inhibition of UbRho hydrolysis by p53Ubinh (CD12345 0.35 nM): fold by which the IC50 of FL is better than that of CD12345 [11] was 60 fold and the IC50 of inhibition of UbRho hydrolysis by p53Ubinh (TCD 200 nM): fold by which the IC50 of FL is better than that of TCD [12] was 60 fold.

For “ubiquitin-propargyl (Ub-PA) suicide probe (from UniProt P0CG48 1-76)”, the percent of CD reacted with the probe [13] was 80%.
